Results on 24 molecules are retold here after patent US20140235701, “NGF APTAMER AND APPLICATION THEREOF” (RIBOMIC INC., published 2014).

What all share (conditions): tags: R&D Systems; chain copies: 2
Series [1] concerns the target T1, NGF (nerve growth factor) (Homo sapiens, UniProt P01138 P01138:122-241). Briefly: SPR; neurite inhibition at 10 nM; no TF-1 inhibition. The method, then:
The cells (2500 cells per well) were cultured for one day in an RPMI-1640 medium containing 2.5% horse serum and 1.25% fetal bovine serum in a 96 well flat-bottom plate coated with collagen type IV. […] Two days later, the cytoplasm and nuclei were stained using Cellomics Neurite Outgrowth Kit (manufactured by Thermo Scientific), and neurite length per cell was measured by Cellomics ArrayScan VTI (manufactured by Thermo Scientific). With the neurite length per cell obtained by the addition of NGF alone as inhibitory activity 0%, and that of the cell obtained by NGF free culture for 2 days as inhibitory activity 100%, the inhibitory activity of the aptamer was calculated from the neurite length per cell obtained by culturing with the addition of NGF and the aptamer in mixture.
Two NGF receptor (human TrkA and human p75) genes were introduced into TF-1 cells (ATCC Number: CRL-2003), which is a human erythroleukemic cell line, by using a retrovirus vector to give cells that highly express two receptors simultaneously and stably. The cells were suspended in an RPMI-1640 medium containing 20% fetal bovine serum, and seeded in a white 96 well flat-bottom plate at 1000 cells (50 μL) per well. […]

The target of series [2] is T1, NGF (nerve growth factor). As to the kind of experiment: cell_activity; neurite; TF-1 0.03.
Series [3] concerns the target T1, NGF (nerve growth factor). As to the kind of experiment: cell_activity; neurite; TF-1 0.033.
Series [4] deals with T2, NT-4 (neurotrophin-4) (Homo sapiens, UniProt P34130 P34130:81-210).
T2 sequence: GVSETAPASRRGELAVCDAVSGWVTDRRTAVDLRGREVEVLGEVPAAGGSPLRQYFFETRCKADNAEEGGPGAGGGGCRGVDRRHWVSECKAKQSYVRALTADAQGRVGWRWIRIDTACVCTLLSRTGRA
Briefly: cell_activity; TF-1.

Series [5] has as its target T3, NT-3 (neurotrophin-3) (Homo sapiens, UniProt P20783 P20783:139-257).
T3 sequence: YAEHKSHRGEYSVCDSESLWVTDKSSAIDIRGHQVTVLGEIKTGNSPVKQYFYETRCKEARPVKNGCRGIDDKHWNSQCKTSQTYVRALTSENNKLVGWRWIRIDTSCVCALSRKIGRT
As to the kind of experiment: cell_activity; TF-1.

Series [6] has as its target T1, NGF (nerve growth factor). As to the kind of experiment: cell_activity; neurite; TF-1 0.030.
Series [7] concerns the target T1, NGF (nerve growth factor). As to the kind of experiment: cell_activity; neurite; TF-1 0.071.
Series [8] concerns the target T1, NGF (nerve growth factor). Briefly: cell_activity; neurite; TF-1 0.037.
The target of series [9] is T1, NGF (nerve growth factor). Briefly: cell_activity; neurite; TF-1 0.051.
Series [10] addresses T1, NGF (nerve growth factor). Briefly: cell_activity; neurite; TF-1 0.046.
The target of series [11] is T1, NGF (nerve growth factor). Briefly: cell_activity; neurite; TF-1 0.025.
Series [12] has as its target T1, NGF (nerve growth factor). As to the kind of experiment: cell_activity; neurite; TF-1 0.035.
Series [13] addresses T1, NGF (nerve growth factor). As to the kind of experiment: cell_activity; neurite; TF-1 0.031. As for the experimental part: (§1) With the neurite length per cell obtained by the addition of NGF alone as inhibitory activity 0%, and that of the cell obtained by NGF free culture for 2 days as inhibitory activity 100%, the inhibitory activity of the aptamer was calculated from the neurite length per cell obtained by culturing with the addition of NGF and the aptamer in mixture.
(§2) Two NGF receptor (human TrkA and human p75) genes were introduced into TF-1 cells (ATCC Number: CRL-2003), which is a human erythroleukemic cell line, by using a retrovirus vector to give cells that highly express two receptors simultaneously and stably. The cells were suspended in an RPMI-1640 medium containing 20% fetal bovine serum, and seeded in a white 96 well flat-bottom plate at 1000 cells (50 μL) per well. […] With the amount of luminescence per well obtained by the addition of NGF alone and culture of the cells for 3 days as inhibitory activity 0%, and that of the well obtained by NGF free culture for 3 days as inhibitory activity 100%, the inhibitory activity of the aptamer was calculated from the amount of luminescence per well obtained by culturing with the addition of NGF and the aptamer in mixture.

Series [14] deals with T1, NGF (nerve growth factor). As to the kind of experiment: cell_activity; neurite; TF-1 0.028. The method, then: as §1, §2
In series [15] the target is T1, NGF (nerve growth factor). As to the kind of experiment: cell_activity; neurite; TF-1 0.036.
The target in series [16] is T1, NGF (nerve growth factor). As to the kind of experiment: cell_activity; neurite; TF-1 0.027.
The target in series [17] is T1, NGF (nerve growth factor). As to the kind of experiment: cell_activity; neurite; TF-1 0.043.
Series [18] deals with T1, NGF (nerve growth factor). As to the kind of experiment: cell_activity; neurite; TF-1 0.075.
Series [19] addresses T1, NGF (nerve growth factor). Briefly: cell_activity; neurite; TF-1 0.083.
In series [20] the target is T1, NGF (nerve growth factor). As to the kind of experiment: cell_activity; neurite outgrowth inhibition; TF-1 IC50 6.924 nM.
Series [21] concerns the target T1, NGF (nerve growth factor). Briefly: cell_activity; neurite; TF-1 0.979.
Series [22] has as its target T1, NGF (nerve growth factor). As to the kind of experiment: cell_activity; neurite; TF-1 0.178.
Series [23] has as its target T1, NGF (nerve growth factor). Briefly: cell_activity; neurite; TF-1 0.018. As for the experimental part: as §1, §2
The target in series [24] is T1, NGF (nerve growth factor). As to the kind of experiment: SPR; 145 mM NaCl, 5.4 mM KCl, 1.8 mM CaCl2, 0.8 mM MgCl2, 20 mM Tris pH 7.6; strong inhibition of NGF-receptor binding. In general terms: Surface plasmon resonance follows binding to a sensor surface in real time, without labels.

T1 sequence (P01138 122-241, one chain of several): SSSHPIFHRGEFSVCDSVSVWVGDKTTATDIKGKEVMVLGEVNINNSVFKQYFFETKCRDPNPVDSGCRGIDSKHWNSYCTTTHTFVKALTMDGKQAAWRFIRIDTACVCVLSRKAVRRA

B1: SEQ ID NO: 99 (ssRNA)
RNA: GGGAGAACUUCGACCAGAAGUCCAAACGGGACUUUAUACCUCUGAGUCGCCUUUGCUCCUAUGUGCGCAUACAUGGAUCCUC
modifications: 2'-F C/U, dA, 2'-OH G
In the case of B1, the binding result in [1] is “binds”.
Consider GGGUCCUGGCUAAGAGUUUCCGUCUCGUAGUCUGUUACCC (ssRNA, 2'-OMe G (G8,G34 2'-OH), dA, 2'-F C/U; 5',3' idT) [SEQ ID NO: 80(1)], for which the midpoint of inhibition in [2], the IC50, lay at 0.271 nM. This counts as sub-nanomolar.
As for GGGUCCUGGAUAAGAGUUUCCGUCUCGUAUCCUGUUACCC (ssRNA, as 82(1) except 2'-OMe U28) [SEQ ID NO: 82(10)], the IC50 (in general, the concentration at which inhibition is half-maximal) is 0.128 nM in series [3], < 3 nM in series [4] and 35.3 nM in series [5].
Turning to GGGUCCUGGAUAAGAGUUUCCGUCUCGUAUCCUGUUACCC (ssRNA, as 82(1) except 2'-OMe U23) [SEQ ID NO: 82(7)], the IC50 in series [4] is 3.74 nM; in [5], < 30 nM; in [6], 0.143 nM.
In the case of GGGUCCUGGAUAAGAGUUUCCGUCUCGUAUCCUGUUACCC (ssRNA, as 82(1) except 2'-OMe U25) [SEQ ID NO: 82(8)], it took 0.284 nM to reach half-maximal inhibition in series [7] (IC50).
The molecule GGGUCCUGGAUAAGAGTUUCCGUCUCGUAUCCTGUUACCC (ssRNA, as 82(48) except dT17,dT33,dU36) [SEQ ID NO: 166] displayed an IC50 in series [8] of 0.113 nM.
Regarding GGGUCCUGGAUAAGAGUUUCCGUCUCGUAUCCUGUUACCC (ssRNA, as 82(1) except 2'-OMe C6) [SEQ ID NO: 82(3)], the values for the IC50 in series [4], in series [5] and in [9] were 9.36 nM, 42 nM and 0.255 nM, respectively.
GGGUCCUGGAUAAGAGUUUCCGUCUCGUAUCCUGUUACCC (ssRNA, as 82(1) except 2'-OMe U30) [SEQ ID NO: 82(11)]: the figures for the IC50 in [10], in series [4] and in series [5] were 0.253 nM, 3.42 nM and 38.1 nM, respectively.
As for GGGUCCUGGAUAAGAGUUUCCGUCUCGUAUCCUGUUACCC (ssRNA, as 82(1) except 2'-OMe C39) [SEQ ID NO: 82(17)], the IC50 is < 3 nM in [4], < 30 nM in series [5] and 0.127 nM in [11].
As for GGGUCCUGGAUAAGAGTUUCCGUCUCGUAUCCTGUUACCC (ssRNA, as 82(48) except dT17,dT33) [SEQ ID NO: 167], the IC50 in series [8] stood at 0.128 nM.
Consider GGGUCCUGGAUAAGAGUUUCCGUCUCGUAUCCUGUUACCC (ssRNA, as 82(1) except 2'-OMe C26) [SEQ ID NO: 82(9)], for which the IC50 in series [4] was < 3 nM; in [5], 34.8 nM; in series [12] it was 0.252 nM.
In the case of GGGUCCUGGAUAAGAGUUUCCGUCUCGUAUCCUGUUACCC (ssRNA, as 82(1) except 2'-OMe U4,C6,U11,C21,U23,C26,U30,C32,U35,C38-40) [SEQ ID NO: 82(20)], the IC50 in [5] is < 30 nM; in [13], 0.244 nM.
For GGGUCCUGGAUAAGAGUUUCCGUCUCGUAUCCUGUUACCC (ssRNA, as 82(1) except 2'-OMe C40) [SEQ ID NO: 82(18)], the values for the IC50 in series [4], in series [5] and in [14] were < 3 nM, 38.7 nM and 0.244 nM, respectively.
In the case of GGGUCCUGGAUAAGAGUUUCCGUCUCGUAUCCUGUUACCC (ssRNA, as 82(1) except 2'-OMe U11) [SEQ ID NO: 82(4)], the IC50 in series [4] came out at 3.37 nM; in series [5], 30.4 nM; in series [15], 0.139 nM.
On to GGGUCCUGGAUAAGAGUUUCCGUCUCGUAUCCUGUUACCC (ssRNA, as 82(1) except 2'-OMe C31) [SEQ ID NO: 82(12)], for which the IC50 in [4] was < 3 nM; in series [5] it was 34.7 nM; in series [16] it was 0.127 nM.
Turning to GGGUCCUGGAUAAGAGUUUCCGUCUCGUAUCCUGUUACCC (ssRNA, as 82(1) except 2'-OMe U35) [SEQ ID NO: 82(15)], the IC50 in [4] is 8.35 nM; in [5], < 30 nM; in series [17], 0.127 nM.
Turning to GGGUCCUGGAUAAGAGUUUCCGUCUCGUAUCCUGUUACCC (ssRNA, as 82(1) except 2'-OMe C20) [SEQ ID NO: 82(5)], the IC50 in series [4] was < 3 nM; in [5], 51.2 nM; in series [18], 0.269 nM.
Consider GGGUCCUGGAUAAGAGUUUCCGUCUCGUAUCCUGUUACCC (ssRNA, as 82(1) except 2'-OMe U4,C6,U11,C21,U23,C26,U28,U30,C32,U35,C38-40) [SEQ ID NO: 82(22)], for which the values for the IC50 in series [5] and in series [19] were < 30 nM and < 0.1 nM, respectively.
With GGGUCCUGGUGAUAAGUUUCCGUCUUAUCACCUGUUACCC (ssRNA, 2'-F C and U; 2'-OH G; 2'-H (deoxy) A) [SEQ ID NO: 81], the IC50 in series [20] is 0.765 nM.

B2: SEQ ID NO: 100 (ssRNA)
RNA: GGGAGAACUUCGACCAGAAGACCAAACGGACUUUAUACCUCUGAGUCGCCUAUGCUCCUAUGUGCGCAUACAUGGAUCCUC
modifications: 2'-F C/U, dA, 2'-OH G
For B2, in series [1], the binding result is “binds”.
Take GGGUCCUGUUCAAGAGUUUCCGUCUCGUGAACUGUUACCC (ssRNA, 2'-F C/U, dA, 2'-OH G) [SEQ ID NO: 88]: in series [21], the IC50 is 0.572 nM. In other words, the sub-nanomolar range.
GGGUCCUGCUCAAGAGUUUCCGUCUCGUGGGCUGUUACCC (ssRNA, as 87(4) plus 2'-OMe A15,A37; no 5' idT) [SEQ ID NO: 87(5)]: the IC50 in series [22] amounted to 0.078 nM.
Take GGGUCCUGGCCAAGAGUUUCCGUCUCGUGGUCUGUUACCC (ssRNA, 2'-OMe G (G8,G34 2'-OH), dA, 2'-F C/U; 5',3' idT) [SEQ ID NO: 78(1)]: the IC50 in series [23] came out at 0.12 nM.

B3: SEQ ID NO: 1 (ssRNA)
RNA: GGGAGAACUUCGACCAGAAGUUGACGACCAACUCGUCUCUUAUGGAUUUACGUGAACCCGUAUGUGCGCAUACAUGGAUCCUC
modifications: 2'-F C and U; 2'-OH G; 2'-H (deoxy) A
As to B3, the binding result in series [24] is listed as “binds”.
